Publication PMC5941273, “DNA-binding miniproteins based on zinc fingers. Assessment of the interaction using nanopores† †Electronic supplementary information (ESI) available. See DOI: 10.1039/c7sc05441f”

Key:
Hk-gaga = Hk-gaga (UniProt Q08605); assay: fluorescence anisotropy; settings: Zn2+, EMSA: 18 mM Tris-HCl pH 7.5, 90 mM KCl, 1.8 mM MgCl2, 0.2 mM TCEP, 9% glycerol, 0.11 mg/mL BSA, 2.2% NP-40, 0.02 mM ZnCl2, 20 C, 75 nM DNA, FA: 20 mM Tris-HCl …
gaga-Hk = gaga-Hk (UniProt Q08605); assay: fluorescence anisotropy; settings: Zn2+, EMSA: 18 mM Tris-HCl pH 7.5, 90 mM KCl, 1.8 mM MgCl2, 0.2 mM TCEP, 9% glycerol, 0.11 mg/mL BSA, 2.2% NP-40, 0.02 mM ZnCl2, 20 C, 75 nM DNA, FA: 20 mM Tris-HCl …
Sequence of gaga-Hk (Q08605 other isoform, or with tags, fused parts or gaps): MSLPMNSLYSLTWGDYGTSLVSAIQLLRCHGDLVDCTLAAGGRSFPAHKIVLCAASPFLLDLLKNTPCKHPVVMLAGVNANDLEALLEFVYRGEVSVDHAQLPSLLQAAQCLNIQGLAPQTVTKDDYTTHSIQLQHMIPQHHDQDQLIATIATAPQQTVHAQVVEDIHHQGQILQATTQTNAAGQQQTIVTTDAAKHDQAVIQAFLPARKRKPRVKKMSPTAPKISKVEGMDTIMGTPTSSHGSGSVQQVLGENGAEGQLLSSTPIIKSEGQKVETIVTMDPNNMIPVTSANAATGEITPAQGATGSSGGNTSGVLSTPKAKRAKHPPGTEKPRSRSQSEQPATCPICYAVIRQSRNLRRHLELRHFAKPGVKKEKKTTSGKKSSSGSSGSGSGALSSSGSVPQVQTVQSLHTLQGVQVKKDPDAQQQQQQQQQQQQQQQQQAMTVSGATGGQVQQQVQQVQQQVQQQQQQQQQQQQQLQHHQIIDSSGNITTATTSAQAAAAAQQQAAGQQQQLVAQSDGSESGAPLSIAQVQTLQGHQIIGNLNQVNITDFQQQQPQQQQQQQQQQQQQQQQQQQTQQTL

gaga-Hk-gaga = gaga-Hk-gaga (UniProt Q08605); assay: fluorescence anisotropy; settings: no calf thymus DNA; Zn2+; EMSA: 18 mM Tris-HCl pH 7.5, 90 mM KCl, 1.8 mM MgCl2, 0.2 mM TCEP, 9% glycerol, 0.11 mg/mL BSA, 2.2% NP-40, 0.02 mM ZnCl2, 20 C, 75 nM DNA; FA: 20 mM Tris-HCl …
Sequence of gaga-Hk-gaga (Q08605 other isoform, or with tags, fused parts or gaps): as above

[1] = target: T1, gaga (GAGA Cys2-His2 zinc finger peptide) (UniProt Q08605 337-367); assay: EMSA; Zn2+; 1000 nM; EMSA: 18 mM Tris-HCl pH 7.5, 90 mM KCl, 1.8 mM MgCl2, 0.2 mM TCEP, 9% glycerol, 0.11 mg/mL BSA, 2.2% NP-40, 0.02 mM ZnCl2, 20 C, 75 nM DNA; FA: 20 mM Tris-HCl pH 7.5, 100 mM NaCl, 0.02 mM ZnCl2, 20 C, 25 nM DNA; nanopore: 100 mM NaCl, 0.02 mM ZnCl2, 20 mM Tris-HCl pH 7.5, 22 C
T1 chain: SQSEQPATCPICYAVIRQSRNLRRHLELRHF

Sequence of Hk-gaga (Q08605 other isoform, or with tags, fused parts or gaps): as the sequence (Q08605 other isoform, or with tags, fused parts or gaps) above

CGCGTCATAATTGAGAGCGC (double strand) [TMR-AT·GAG]
Kd (Hk-gaga; 50 uM bp calf thymus DNA): 92 nM
Kd (Hk-gaga; no calf thymus DNA): 44 nM
Kd (gaga-Hk; 50 uM bp calf thymus DNA): 58 nM
Kd (gaga-Hk; no calf thymus DNA): 41 nM

CGCGTCATCAGCGAGAGCGC (double strand) [TMR-cg·GAG]
Kd (gaga-Hk; no calf thymus DNA): 100 nM

GAGCTCTCAATTGAGAGCGCG (double strand) [TMR-CTC·AT·GAG]
Kd (gaga-Hk-gaga): 35 nM

B1: cg·GAG (dsDNA)
DNA 1: CGCGTCATCAGCGAGAGCGC
DNA 2: GCGCTCTCGCTGATGACGCG
binding result [1]: no binding

B2: AT·GAG (= cat·AT·GAG) (dsDNA)
DNA 1: CGCGTCATAATTGAGAGCGC
DNA 2: GCGCTCTCAATTATGACGCG
binding result [1]: no binding
